The text below walks through data of PMC4520738.

For this data set, the target named is hDNMT1 351-1600 R582E (Homo sapiens, UniProt P26358 351-1600, R582E). The data set is described as follows: EMSA. On the technique in general: Mobility shift assays separate free from complexed probe on a gel.
hDNMT1 351-1600 R582E, sequence (P26358 351-1600 R582E): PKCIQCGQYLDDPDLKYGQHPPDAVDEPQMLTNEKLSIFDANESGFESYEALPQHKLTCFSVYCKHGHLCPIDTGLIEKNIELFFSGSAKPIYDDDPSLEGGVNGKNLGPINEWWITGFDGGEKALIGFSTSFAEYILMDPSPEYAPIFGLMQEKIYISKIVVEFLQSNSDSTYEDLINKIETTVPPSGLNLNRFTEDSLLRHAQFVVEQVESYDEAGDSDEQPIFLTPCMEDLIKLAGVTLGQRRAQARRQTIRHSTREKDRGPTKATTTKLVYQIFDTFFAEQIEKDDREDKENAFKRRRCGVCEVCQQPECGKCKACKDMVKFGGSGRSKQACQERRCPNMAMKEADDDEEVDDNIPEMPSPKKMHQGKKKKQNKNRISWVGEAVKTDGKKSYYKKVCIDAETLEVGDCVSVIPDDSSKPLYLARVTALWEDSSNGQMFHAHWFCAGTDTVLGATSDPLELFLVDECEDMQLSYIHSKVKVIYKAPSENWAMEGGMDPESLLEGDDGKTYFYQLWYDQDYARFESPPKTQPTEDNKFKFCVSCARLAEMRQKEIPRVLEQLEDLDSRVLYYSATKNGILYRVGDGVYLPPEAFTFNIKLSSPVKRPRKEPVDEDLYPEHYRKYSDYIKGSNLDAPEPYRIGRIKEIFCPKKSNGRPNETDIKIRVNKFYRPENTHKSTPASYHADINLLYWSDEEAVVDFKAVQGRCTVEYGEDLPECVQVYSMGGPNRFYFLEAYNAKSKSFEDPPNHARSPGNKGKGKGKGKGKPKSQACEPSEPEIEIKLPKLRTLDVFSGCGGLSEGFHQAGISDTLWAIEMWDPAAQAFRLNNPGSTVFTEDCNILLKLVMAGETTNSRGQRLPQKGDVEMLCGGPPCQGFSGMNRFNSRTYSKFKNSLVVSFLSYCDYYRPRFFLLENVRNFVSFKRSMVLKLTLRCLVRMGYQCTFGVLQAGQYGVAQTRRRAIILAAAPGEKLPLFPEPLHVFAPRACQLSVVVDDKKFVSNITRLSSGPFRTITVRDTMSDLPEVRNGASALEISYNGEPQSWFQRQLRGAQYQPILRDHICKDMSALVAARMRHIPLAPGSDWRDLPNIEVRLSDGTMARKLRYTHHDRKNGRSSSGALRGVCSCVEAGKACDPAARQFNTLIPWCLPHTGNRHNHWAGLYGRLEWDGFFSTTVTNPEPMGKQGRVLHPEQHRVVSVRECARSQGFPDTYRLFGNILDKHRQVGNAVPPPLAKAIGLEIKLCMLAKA

B1: 26-mer hemimethylated CpG DNA (dsDNA)
DNA 1: ACACCAAGCCTGCGGAGGCTCACGGA
DNA 2: TCCGTGAGCCTCCGCAGGCTTGGTGT
modifications: 5-methyl-2'-deoxycytidine at position 13 of strand 1 (upper)
Regarding B1, the binding result is recorded as “binds”.
